Patent US20170173105A1, “AUTOASSEMBLING PEPTIDES FOR THE TREATMENT OF PULMONARY LEAKAGE” (3-D MATRIX, LTD., priority 2014, published 2017)

Columns and labels:
[1] = Rheological measurements of RADA16 mixed with salts (stiffness, reversibility, gelation kinetics); format: physicochemical; details: (RADA)4 about 2.5 w/v percent; calcium chloride about 0.125 M
[2] = as above; format: physicochemical; details: for gelation kinetics by ion: 0.5% RADA16; for storage modulus: (RADA)4 about 0.5 w/v percent
Procedure: In a rheological comparison of 2.5% RADA16 and 2.5% RADA16+NaCl, KCl, and CaCl2, solutions of 0.5% RADA16 mixed with 0.005, 0.05, 0.125, 0.25, 0.5, and 1 M NaCl, KCl, and CaCl2 were prepared. The anion, chloride (Cl—), was kept the same to observe the effect of the cations, sodium (Na+), potassium (K+), and calcium (Ca2+). FIG. 21 provides a basic understanding of how varying the cations of a salt solution effects the viscoelastic properties and the stiffness of self-assembling peptides. […] This should be because Ca has […] higher ionic strength than Na and K at the same molar concentrations. Therefore, influence of salts on the peptide solution is more related to their ionic strength rather than their molar concentration, as shown in FIGS. 17-18 and Table 2a-c. In some embodiments, there is a correlation between the properties of the peptide solutions with salts based on the concentration of the salts.
Rheological measurements of stiffness of 2.5% RADA16 and 2.5% RADA16+0.25 M CaCl2 was evaluated.
Rheological measurements of reversibility of 0.5% RADA16 solution with +0.125, 0.25, and 0.5 M CaCl2 were evaluated. Solutions of 0.5% RADA16 mixed with 0.125, 0.25, and 0.5 M CaCl2 were prepared. The structure of the self-assembled peptide solution were disrupted thoroughly by application of mechanical stress through vortexing and sonication. The mixtures were placed at room temperature for 48 hours to allow self-assembly to take place. […] FIG. 23a presents raw rheological data of the control peptide solution with salts and the perturbed peptide solutions with salts while FIG. 23b provides a comparison of stiffness of the control peptide solutions and the perturbed peptide solutions.
Rheological measurements of gelation kinetics of 0.5% RADA16+NaCl, KCl, and CaCl2 were evaluated. A solution of 0.5% RADA16 was prepared and gelation kinetics were observed by treatment with several cations (e.g. Na, […], K) and anions (e.g. Cl, CO3, PO4, SO4). It was determined how long it will take for the peptide mixtures to gel and how to control that gelation time by varying the cation/anion type and concentration. […] In vivo and in vitro qualitative experiments and the resulting observations were supportive of these conclusions.
Due to the success of topically added solution of NaCl gently massaged into 2.5% RADA16 increasing the burst pressure of 2.5% RADA16, other salt based solutions were completely mixed with RADA16 and their mechanical properties were measured. […] The results can be seen in FIG. 29 with respect to the storage modulus (i.e. mechanical strength) of 0.5% PuraMatrix (RADA16) mixed with NaCl, KCl, or CaCl2 at varying concentrations.

## Arg-Ala-Asp-Ala-Arg-Ala-Asp-Ala-Arg-Ala-Asp-Ala-Arg-Ala-Asp-Ala [PuraMatrix ®]
[1]
  storage modulus: about 600 Pa
[2]; 0.5% PuraMatrix (RADA16) mixed with salts at varying concentrations
  mechanical properties (storage modulus) with calcium chloride compared with sodium chloride or potassium chloride: greater mechanical properties
[2]; treatment with chlorine
  gelation kinetics by ion: quickest gelation
[2]; treatment with sulfate
  gelation kinetics by ion: slowest gelation
[2]; 0.5% RADA16 with CaCl2 within the optimal salt concentration range, vortexing and sonication, 48 hours room temperature
  reversibility after perturbation: remained reversible
[2]; 2.5% RADA16 vs 2.5% RADA16 with CaCl2 (0.25 M / 0.125 M printed)
  stiffness with added CaCl2 compared with peptide alone: noticeable increase in stiffness
[2]; calcium chloride about 0.125 M
  storage modulus: about 25 Pa
[2]; calcium chloride about 0.250 M
  storage modulus: about 44 Pa
[2]; calcium chloride about 0.500 M
  storage modulus: about 52 Pa
[2]; RADA16 mixed with NaCl, KCl, CaCl2 at the same molar concentrations (0.005-1 M)
  enhancement of stiffness by cations: Ca provided the best enhancement of stiffness
